Source: patent US11419948B2, “Functionalized microgels with fibrin binding elements” (Georgia Tech Research Corporation, priority 2013, dated 2022)

T1: fibrin clots (Homo sapiens, UniProt P02671+P02675+P02679)
T1 sequence (P02671 36-866 limits assumed): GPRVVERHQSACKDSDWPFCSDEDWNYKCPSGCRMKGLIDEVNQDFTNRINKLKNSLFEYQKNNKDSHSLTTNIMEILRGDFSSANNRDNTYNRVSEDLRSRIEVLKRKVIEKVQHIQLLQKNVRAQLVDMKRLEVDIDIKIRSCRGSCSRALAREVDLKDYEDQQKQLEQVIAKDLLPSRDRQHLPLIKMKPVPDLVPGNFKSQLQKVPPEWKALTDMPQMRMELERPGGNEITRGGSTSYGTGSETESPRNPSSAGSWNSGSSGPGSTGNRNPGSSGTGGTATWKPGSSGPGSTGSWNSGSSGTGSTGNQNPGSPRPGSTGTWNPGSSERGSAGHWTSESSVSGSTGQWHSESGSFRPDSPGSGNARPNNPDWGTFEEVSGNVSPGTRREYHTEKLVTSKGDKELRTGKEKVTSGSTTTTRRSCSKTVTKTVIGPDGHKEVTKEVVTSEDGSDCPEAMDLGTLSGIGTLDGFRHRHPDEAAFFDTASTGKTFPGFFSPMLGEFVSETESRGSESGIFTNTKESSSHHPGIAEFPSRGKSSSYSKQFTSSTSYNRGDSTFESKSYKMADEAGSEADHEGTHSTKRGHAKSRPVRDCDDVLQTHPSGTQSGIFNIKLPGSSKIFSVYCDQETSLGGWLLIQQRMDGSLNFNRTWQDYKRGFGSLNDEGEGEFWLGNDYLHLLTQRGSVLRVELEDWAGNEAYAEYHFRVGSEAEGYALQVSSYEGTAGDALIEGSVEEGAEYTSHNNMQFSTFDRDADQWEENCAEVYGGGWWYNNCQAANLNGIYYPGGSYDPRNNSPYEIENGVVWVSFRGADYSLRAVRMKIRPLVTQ
T1 sequence (P02675 45-491 limits assumed): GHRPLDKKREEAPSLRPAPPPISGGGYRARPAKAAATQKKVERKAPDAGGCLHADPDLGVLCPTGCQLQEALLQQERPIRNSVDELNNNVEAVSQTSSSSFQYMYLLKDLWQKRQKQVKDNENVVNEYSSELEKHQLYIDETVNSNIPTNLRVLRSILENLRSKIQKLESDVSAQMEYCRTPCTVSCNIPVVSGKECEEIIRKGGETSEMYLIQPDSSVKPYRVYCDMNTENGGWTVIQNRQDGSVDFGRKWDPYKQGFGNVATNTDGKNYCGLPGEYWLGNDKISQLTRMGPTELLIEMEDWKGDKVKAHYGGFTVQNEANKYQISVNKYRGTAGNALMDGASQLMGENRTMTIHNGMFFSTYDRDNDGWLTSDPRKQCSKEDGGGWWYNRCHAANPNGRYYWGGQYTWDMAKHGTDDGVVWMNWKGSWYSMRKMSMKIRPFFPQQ
T1 sequence (P02679 27-453): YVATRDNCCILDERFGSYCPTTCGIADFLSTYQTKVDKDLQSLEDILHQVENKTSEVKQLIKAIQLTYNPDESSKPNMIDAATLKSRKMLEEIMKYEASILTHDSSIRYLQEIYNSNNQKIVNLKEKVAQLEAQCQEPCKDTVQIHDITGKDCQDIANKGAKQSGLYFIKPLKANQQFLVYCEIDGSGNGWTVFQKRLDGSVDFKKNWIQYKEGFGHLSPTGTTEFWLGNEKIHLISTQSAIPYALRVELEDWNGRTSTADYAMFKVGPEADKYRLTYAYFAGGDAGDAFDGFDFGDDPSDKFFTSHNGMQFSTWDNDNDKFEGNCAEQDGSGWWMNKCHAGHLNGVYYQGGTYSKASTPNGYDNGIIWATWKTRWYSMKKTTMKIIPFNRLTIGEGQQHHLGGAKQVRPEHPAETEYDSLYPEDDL

B1: PLPs: ultra-low crosslinked pNIPAm-AAc microgels conjugated to fibrin-specific sdFv H6 (conjugate)
VH: QVQLLESGGGLVQPGGSLRLSCAASGDRFTHNDMGWVRQAPGKGLEWVSTIPTTDGSTYYADSVKGRFTISRDNSKSTLYLQMNSLRAEDTAVYYCATGYMWKAPAYVKYWGQGTLVTVSSAAAEQKLISEEDLNSAAHYTDIG
B2: H6: fibrin-specific human sdFv clone from phage biopanning, SEQ ID NO: 1 (protein)
VHH: B1 VH

Tests used:
fibrin clots = biological target: T1, fibrin clots; assay: Clot microstructure by confocal microscopy; type: biochemical; design: from tissue; host or cells: blood plasma (platelet-rich or platelet-poor); conditions: clots formed in presence of particles, compared to control (fibrin-only) clots
From the text: FIGS. 4A and 4B are maximum-intensity confocal images of fibrin clots formed from platelet-rich plasma (PRP) or platelet-poor plasma (PPP) in the absence or presence of PLPs or S11-ULCs. Fibrin, grey; microgels/platelets, circled.
To allow appreciation of the network structure in the presence of saturation, 0.33× exposures and equivalent exposures are shown on the left- and right-hand sides, respectively, of the images for PRP and PLP clots. […] FIG. 4E is a graph showing the calculated spread area of PLPs, natural platelets, S11-ULCs and H6-PS particles within fibrin matrices. (**p<0.01, ***p<0.001).
To further characterize the nature of PLP-fibrin interactions, clot microstructure was analyzed via confocal microscopy by forming clots in the presence or absence of scFv-ULC microgels. […] These clots were highly heterogeneous, containing regions of dense fibrin observed in conjugation with PLPs (FIG. 4A) with the dense features becoming more pronounced over time. These features were very similar to those observed from clots formed in platelet-rich plasma, although occurring on a different time scale.

human plasma components = assay: Quantitative human plasma binding ELISA; conditions: five 10-fold plasma dilutions
Protocol: The quantitative assay involved coating a 96-well high-binding plate with five different 10-fold plasma dilutions. H6, S11, or a positive-control anti-fibrinogen antibody were incubated in these wells to allow for binding with plasma components to occur. All wells were set-up in triplicate. After washing away unbound nanobody or antibody and treating with appropriate secondary antibodies and ELISA reagents, the amount of H6, S11 or anti-fibrinogen antibody remaining in each well was measured spectrophotomerically in a plate reader. All readings were normalized to wells in which PBS was incubated with plasma.

BSA = BSA (Bos taurus, UniProt P02769); assay: SPR on BSA surface; type: binding
From the text: FIG. 2A is an SPR sensorgram of thin fibrin layer immobilized on surface the SPR channel via NHS/EDC activated carboxylic acid terminated SAM with subsequent injections of fibrinogen (1), ethanolamine quencher (2), HEPES buffer+Tween 20 (3), thrombin (4), and fibrinogen+anti-thrombin+heparin (5). FIGS. 2B-2K are representative SPR sensorgrams of scFvs on fibrin layer (FIGS. 2B-2F) or BSA surface (FIGS. 2G-2K) for clones A2 (FIGS. 2B and 2G), A6 (FIGS. 2C and 2H), H6 (FIGS. 2D and 2I), B3 (FIGS. 2E and 2J), or non-specific control (FIGS. 2F and 2K). Experimental data is shown in black and fits are shown in dotted line.
Based on previous SPR protocols developed in the lab^4, a thin fibrin layer was immobilized on the surface of a gold SPR chip via layer-by-layer deposition of fibrinogen-thrombin-fibrinogen^3. SdFvs were flowed across the fibrin surface and the binding interactions were evaluated and recorded. Additionally, antibody fragment binding interactions with a surface of immobilized fibrinogen was used to investigate the specificity to fibrin. All SPR data was examined and analyzed with Scrubber 2 and Clamp XP (Center for Biomolecular Interactions Analysis, University of Utah). Data simulation curves were generated based on a Langmuir 1:1 binding model assuming only a single ligand-analyte interaction.

Chain of BSA (P02769 25-607): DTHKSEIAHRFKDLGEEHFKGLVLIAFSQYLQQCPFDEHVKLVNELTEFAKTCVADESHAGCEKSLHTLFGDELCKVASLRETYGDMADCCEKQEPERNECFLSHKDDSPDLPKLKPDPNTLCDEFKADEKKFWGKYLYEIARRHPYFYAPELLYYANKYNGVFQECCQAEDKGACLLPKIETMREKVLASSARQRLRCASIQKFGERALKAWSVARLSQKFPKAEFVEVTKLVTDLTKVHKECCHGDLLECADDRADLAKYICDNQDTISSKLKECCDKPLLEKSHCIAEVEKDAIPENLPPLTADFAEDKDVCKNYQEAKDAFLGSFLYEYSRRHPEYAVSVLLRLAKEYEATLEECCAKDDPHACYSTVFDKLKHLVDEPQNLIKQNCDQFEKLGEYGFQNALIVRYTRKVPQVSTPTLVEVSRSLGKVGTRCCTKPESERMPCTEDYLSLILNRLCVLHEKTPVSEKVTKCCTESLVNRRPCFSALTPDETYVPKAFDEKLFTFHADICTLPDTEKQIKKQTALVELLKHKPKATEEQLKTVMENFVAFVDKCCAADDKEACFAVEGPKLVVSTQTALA

| Molecule | clot structure (fibrin clots) | binding to plasma-coated plate (human plasma components) | binding to BSA (BSA) |
| --- | --- | --- | --- |
| B1 | significantly altered clot structure |  |  |
| B2 |  | negligible binding | negligible binding |
